Measured values reported in the DeepSol protein solubility set.

Experiment: soluble on expression in E. coli; label from the status in PepcDB or PDB records

Row | Sequence | soluble on expression in E. coli
1 | MALTEERVLEALRTVMDPELGKDLVSLGMVDEVRVEGGRVDLLVNLTTPACPLKGQIEADIRRALAPLGAEEVRVRFGGGVRPPERYALPGVKHVVAVASGKGGVGKSTVAANLALALSREGAKVGLLDADLYGPSQAKMFGLEGMRLKVDQDRRILPLEAHGIKVLSIANIVPPGQALAWRGPILHGTLKQFLQDVNWGELDYLVVDLPPGTGDVQLSLSQLTQVSGGVIVTTPQEVALIDAERAADMFRKLQVPVLGVLENMSAFLCPHCGKPTPIFGEGGGRRLAERLKTRFLGEIPLTLALRESGDRGVPVLAQDPEGLEAQAFLKAARELAAALSVQTFLPLPMA | soluble
2 | MGHHHHHHSHMEFPFDVDALFPERITVLDQHLRPPARRPGTTTPARVDLQQQIMTIIDELGKASAKAQNLSAPITSASRMQSNRHVVYILKDSSARPAGKGAIIGFIKVGYKKLFVLDDREAHNEVEPLCILDFYIHESVQRHGHGRELFQYMLQKERVEPHQLAIDRPSQKLLKFLNKHYNLETTVPQVNNFVIFEGFFAHQHRPPAPSLRATRHSRAAAVDPTPAAPARKLPPKRAEGDIKPYSSSDREFLKVAVEPPWPLNRAPRRATPPAHPPPRSSSLGNSPERGPLRPFVPEQELLRSLRLCPPHPTARLLLAADPGGSPAQRRRTR | not soluble
3 | MSLKARRGLSASDLINLNADRLQCLLSGHPKFVFNKGRRGWGKEALERYAPEYANTFRLHWLAVKREHMIWRCDNEMDIHQLLTAAMDPQEFARFSQVWQENGLDHNWLPLPVHPWQWQEKIATDFIADFGEGRMVSLGEFGDQWLAQQSLRTLTNASRRGGLDIKLPLTIYNTSCYRGIPGRYIAAGPLASRWLQQVFATDATLVQSGAVILGEPAAGYVSHEGYAALARAPYRYQEMLGVIWRENPCRWLKPDESPFLMATLMEWDENNQPLAGAYIDRSGLDAETWLTQLFRVVVVPLYHLLCRYGVALIAHGQNITLAMKEGVPQRVLLKDFQGDMRLVKEEFPEMDSLPQEVRDVTSRLSADYLIHDLQTGHFVTVLRFISPLMVRLGVPERRFYQLLAAVLSDYMKKHPQMSERFALFSLFRPQIIRVVLNPVKLTWPDLDGGSRMLPNYLEDLQNPLWLVTQEYESEGHHHHHH | soluble
4 | MKLTQLDLSHNNLSVIPTWALTYLHSLQILHLENNRIDVLRSNTFDETQLNNLQFLYLDNNQLRIIPNLAFNHLRLVVLMLANNRITEIQKMSLPQTLKFLVLRNNLLTQIPYVALNDLKTLQSIDLEGNNITHLMDTNEVTFESEMKVILRNNKVRRLDKHSFRSFRKIRELDISYNQIQTVEDSSFETVGHMQSLDLSYNRIAYLPRGMLKNFAKTLKTLKLAENMIHATPEALRDLRNLTHLNLNGNKLNRIDGDVLKGCTDTLVELFIANNYLEHIPHGVLSGMKQLEHLDISKNKIMSLKKPTSLLSITKEETSTVRRLNLAGNRINNMSDYLIFEHMPLLTYVDVSFNRIRFISPRVFEKLKNLESLFLQNNQLAHFPSLFRLDKLRHLMLDNNQIQKIDNFSLADLPKLQHLSLAGNQLDIITENMFGSSSSSELKSLNLAHNKIHSISSRSFSDLDNLQQLRLSHNNIRTITSMTFSNLRNLRYLDLSHNRIIKILPSALYQLPALDVLHLDHNNLNEIDRDAFRSFSDLQSLKLSHNAFRRFSCEFLGSISQVHQLDLSSNQINEIDIFCIARGIRKLSLASNSVEKINRKLLQDATELTSIDISHNGIIDVDSDAFCECRKLSHIKLSHNYIRNLWKGTRVCIPWISHLTTFCFFTKEHLERTISFSYIIVDSSQLTSFGNLSILSFANNKVDSIEDGAFENLLSLKILDLSNNPVTSWSPTAFRDLSHSISSINMANTGLFSMPKFSHRSIQSLNISCNKIYELSEKDLAPLTKVVALDISHNNLKQISSMAFEPLIHLKQLNVSANPITHLTNEHIQQLYKLYNIPDMARPYQISSILSNLPPLHTIYVDIKESALDRQFYTADTRLLRHLVVAGRNLTKIEVGAFATIRGFRVRIEIHNSSIEEFPSRIFDTLTGISILSLSLTDNKLTTFNPFQSTVAPAVNQHGTILHSLELKNNPIKCDCQFKWMDDFIRVTKFLSDHHISHDFDKVECADAQSSNLESFASAANELFSYKTKMTLLSKSEDFGLECAVKYSNPLKPLIYVLMLVCLSYL | not soluble
5 | MAHHHHHHMLRRVTCMAASVGRAAAALSVSPVMAQIPSAMRPPSKASTSAVASLLPPCCQPIYQQRRCYASRSGEEKGNADKGTQAAAAAVSTTPGTATAEAVRYFAANEQNADAAARAQGSVKQQEQLSAAAANGGDAATSGIRTIGIKLTEDDELVRAFNNFSKSVNGCTQEEFLIGAKQAYYSLAVVISAFLEHGQPLAGRTESTKMIAAAHEAAKLLDKEFKPESRCDAAATSLASKAEGDGTDDSSSSSSKTKLQESLVRNVVSTIVSLIPVSRHLAESIFKIWLLHKVKQVNLSSIASPADYVLDSKLVIFARLGKARMYFNSDNVGAEVDVTFSNDYLRKLDPASVAGSGAAGSSQMADAAGKVDEDDFDTGMIQVHTDTDANAHRTTAEEHTFVVNKATRTLTPTGSTAASTAAAAAAASTDAARRSGGNSASAGAGGASAADSAKSSGTASRIQVTCVKTTDFLRKSASAATVAATAVRDEAAAKTAAPNESSGEEEEEAHSVYIKVNGNMLPPIPASAHACALLTVDVVVPPERYAYNFEWFYKRIVGYENEYERIAAARVFASNSPKPLASFLDFFMRMVTGKPVEFMFSKAIGRMIGIPDDVSQTPPATRKLMCMYMDQSYKWVLADLVTLAPVMETKLPKA | not soluble
6 | MDKDMQLIRGLHNANRVLQGCALTIGNFDGVHLGHQTVLRHLRQKADELNLPMAVLLFESQPREYFMGKNAPARLMRLRDKIYYLEKAKVDVVIVAKFDRTFAEQLADVFIEQTLVNHLHVKFLSIGDDFKFGSKRQGNFAMLQAASKRFGFIVEDNRSFCLDAQRISSTAIREALANDDLQLAENLLGKPYRIFGRVIHGNKLGRTIGFPTANIRLHRQVNPIKGVYAVKVRLKSGEIFNGVANMGKRPTINGLMQLLEVHLFDFSQNIYGQMVEVEFCHKIRNEIKFPSFDDLKVQIEKDVETAKAFFNSLEHHHHHH | not soluble
7 | SLGGEVSGKGPAVAAREARDPLPDAGASPAPSRCCRRRSSVAFFAVCDGHGGREAAQFAREHFWGFIKKQKGFTSSEPAKVCAAIRKGFLACHLAMWKKLAEWPKTMTGLPSTSGTTASVVIIRGMKMYVAHVGDSGVVLGIQDDTKDDFVRAVEVTQDHKPELPKERERIEGLGGSVMNKSGVNRVVWKRPRLTHNGPVRRSTVIDQIPFLAVARALGDLWSYDFFSGEFVVSPEPDTSVHTLDPQKHKYIILGSDGLWNMIPPQDAISMCQDQEEKKYLMGEHGQSCAKMLVNRALGRWRQRMLRADNTSAIVICISPEVDNQGNFTNEDELYLNLTDGPSYNSQETCVMTPSPCSTPPVKSLEEDPWPRVNSKDHIPALVRSNAFSENFLEVSAEIARENVQGVVIPSKDPEPLEEN | soluble
8 | MSLSQPIYKRILLKLSGEALQGEDGLGIDPAILDRMAVEIKELVEMGVEVSVVLGGGNLFRGAKLAKAGMNRVVGDHMGMLATVMNGLAMRDSLFRADVNAKLMSAFQLNGICDTYNWSEAIKMLREKRVVIFSAGTGNPFFTTDSTACLRGIEIEADVVLKATKVDGVYDCDPAKNPDAKLYKNLSYAEVIDKELKVMDLSAFTLARDHGMPIRVFNMGKPGALRQVVTGTEEGTTICEGHHHHHH | soluble
9 | MGSDKIHHHHHHMRSIVQNKVEECLEILKWDKTKWIDFWRELRRKFGPIVPNYERKLELNDEKIEKILREIERRELDRFKWDWLDVSRNKKIECAESLSEREDFLDLKREDFSVFLMSLLGLSDWVVVDGEKEKIVVMDVFSLWRKGLLRELSLATLHAVIEFRKGKEIGNYGGKKEYFDSLLKEIEKILKRGKEALGDLCEFLRNHVSYYDWVGFYFVEDGKLKLGPFVGEPTEHVEIPFGVGICGQAAEREETFVVQDVSKETNYLSCSPKTKAEIVVPIFKDGKIIGELDIDSYSPSPFSEEDRAFLEKVCELVSKVV | not soluble
10 | SLSGRIVYNFNPGWRFHRGDIKGAEAVRFDDTSWQVVSVPHTVELMPAEASGCRNYQGVAWYRKHFVIPQDMKGKEVSLHFEGAMGKQVIYLNGKRVQEHLGGYLPFTVQLTEQGVQPGDSCLLAVMTDNSDDKNFPPGKRQYTLDFAYHGGIYRDVWMIGKSSVAITDALEADKVAGGGVFVHFDNISGKKAEVYVDTEVHNSGKQTRTVAVETVLADAGDVPVKRVSQQVKLQAGESKTVRQRFAVRNPKLWSPDSPYLYRIQSRVKAGHEVLDGGVTRVGIRKAEFKGKDGFWLNGKPFGQLVGANRHQDFAYVGNALPNSQQWRDAKRLRDAGCTIIRVAHYPQDPAFMDACDEMGLFVIVATPGWQYWNKNPEFAKLVHRNTREMIRRDRNHPSVLMWEPILNETPYPRDFALEALRITREEFPYPGRPVAAADVHSKGVAENYDVVYGWPGDDEKADRPEQCIFTREFGENVDDWYAHNNNNRASRSWGERPLLVQALSLSKSYDEMYRTTGQFVGGAQWHPFDHQRGYHPDPYFGGIYDAFRQPKYAYYAFRSQSAATLKHPVAECGPMVFIAHEMSPFSDADVVVFSNCDSVRLSVYDGTESRTLPVVHAQGHMPNAPVIFKDVWDFWEAREYSYKQKNWQKVNMVAEGIIDGKVVCTYKRMPSRRSTKLRMYVDTEGKQLVADGSDFIVVVAEVTDDSGNVRRLAKENIVFTVEGEGRIIGDASINANPRTVEFGSAPVLIRSTRKPGKIKVKAHVQFEGTNAPVATEIELESIPSELPFCYTEEG | not soluble
11 | MGSDKIHHHHHHMIQLAFTKTEISADTAVKQGAALRQMNELLERLSTAPKYHTLTKKDRAQLSREGYAADLVDNLVLITQRKEESTVTDNDNLVVGFTYAAFDPALYANETLKNHFKQMSQGCCCFCESFLMPTASGHISHYRPVQQLDLEGVEHTKPNSECSPYFSEAYQQENLVYVCSGCDVTHKAGRFPIAGERFPHVALSTENALLVNPYQENPRDFIRFNLCNGHAYPFDQACAFYADTQKLTEQDVEALLWKTPSAIPNQVDEAGALLTDSGVEQAFTFWLKSEASQRQSSRGAVTIVTLGLNRSDLVLARLMTLKQYHNDFITHKAALAQPLMPEDIATIAYRSLALDAFATWQSIANGTGSNLANNEGTNKGTNKGTNIGTNIGASEDTNVANSLPLMANTVLKLREQANNTVENPELDILLPSWFRCCLSYLVLESELQQTGKRRLVFLCNQDRLYGETDTEKCIFLSIKWQRDLHKVIKVRSKRNIWEASFSELANSRPHELINLFANNDVWVEGNFQPLA | not soluble
12 | MSTNITFHASALTRSERTELRNQRGLTIWLTGLSASGKSTLAVELEHQLVRDRRVHAYRLDGDNIRFGLNKDLGFSEADRNENIRRIAEVAKLFADSNSIAITSFISPYRKDRDTARQLHEVATPGEETGLPFVEVYVDVPVEVAEQRDPKGLYKKAREGVIKEFTGISAPYEAPANPEVHVKNYELPVQDAVKQIIDYLDTKGYLPAKKE | soluble
13 | MTPPRVLSIAGSDSGGGAGIQADMRTMALLGVHACVAVTAVTVQNTLGVKDIHEVPNDVVAGQIEAVVTDIGVQAAKTGMLASSRIVATVAATWRRLELSVPLVVDPVCASMHGDPLLAPSALDSLRGQLFPLATLLTPNLDEARLLVDIEVVDAESQRAAAKALHALGPQWVLVKGGHLRSSDGSCDLLYDGVSCYQFDAQRLPTGDDHGGGDTLATAIAAALAHGFTVPDAVDFGKRWVTECLRAAYPLGRGHGPVSPLFRLS | not soluble
14 | SKGLSFSSVYSVGNAAQTGVEDVLEHLDETFDAATSSHTLLLYIETISKPKRFLKHARSLVQKGCRIAAIKSGTSSDGGRAAASHTGAMLNSDVAVDALFRKAGVVRCYSREELATVGAVLQHPVLTGKNMAVITHAGGPAVMLTDALSNGGMSVPPIPEEKTRTLLSELFDGSSVANPIDILATGTAEQLSKVIDTCEKDLDTIDGMVVIFGSPGLFDVSDAYDVIREQQKKCKKPIYAVLPSVINAKEGMERFIAQGGILFEEEVALARAICKVYQTPKPEMTEESELPKAAEIRRLLAGKSGMLGTGDML | not soluble
